{"source": "paper PMC10668032", "about": "“Altered binding affinity of SIX1-Q177R correlates with enhanced WNT5A and WNT pathway effector expression in Wilms tumor”", "binders": {"B1": {"name": "WNT5A_promoter_EMSA (dsDNA)", "DNA 1": "CCCGCCCTAAGTGTCAAATTTCCTCCAGGGGAG", "DNA 2": "CTCCCCTGGAGGAAATTTGACACTTAGGGCGGG"}}, "molecular_target": "T1, SIX1-Q177R (human, UniProt Q15475 1-284, Q177R)", "T1 sequence": "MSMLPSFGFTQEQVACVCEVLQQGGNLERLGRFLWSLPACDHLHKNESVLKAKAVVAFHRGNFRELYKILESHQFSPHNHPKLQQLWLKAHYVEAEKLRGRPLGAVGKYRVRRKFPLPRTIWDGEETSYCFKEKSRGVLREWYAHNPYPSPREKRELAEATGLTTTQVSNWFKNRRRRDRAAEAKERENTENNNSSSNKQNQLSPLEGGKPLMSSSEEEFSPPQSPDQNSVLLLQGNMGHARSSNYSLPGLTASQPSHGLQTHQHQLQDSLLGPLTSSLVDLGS", "test": "EMSA; EMSA: Active Motif Gelshift or Thermo LightShift chemiluminescent kit binding buffer, no glycerol, no poly d(I-C), RT 25 min; protein dilutions 1-300 nM; 6% gel in 0.5x TBE; pH and salt not given", "details": "protein: recombinant; tags: N-terminal HA from pGEX-6p1-N-HA (GST removed with PreScission); label: biotin 3' end (both strands, Pierce 3' end-labeling kit); blunt", "data": [{"binder": "B1", "values": [{"measurement": "binding signal", "value": "~10 fold higher affinity than SIX1 on same probe"}]}]}
